Test results from article PMC7721868 (Scientific Reports, 2020).

B1: GST-fusion protein containing only the Habc domain (1–146) of Stx3 (domain or fragment, rat, UniProt Q08849 1-146, looked up)
chain: MKDRLEQLKAKQLTQDDDTDEVEIAIDNTAFMDEFFSEIEETRLNIDKISEHVEEAKKLYSIILSAPIPEPKTKDDLEQLTTEIKKRANNVRNKLKSMEKHIEEDEVRSSADLRIRKSQHSVLSRKFVEVMTKYNEAQVDFRERSK
notes: syntaxin 3 (Stx3), rat, N-terminal region with the Habc domain, residues 1-146; Cloned into pGEX-4T-3, which by my knowledge puts GST at the N-terminus; also called GST-Stx3-Habc; GST-Stx3-1–146; source: E. coli Rosetta 2, purified (glutathione agarose, eluted with glutathione, dialyzed)
B2: GST fusion protein of the constitutively open mutant of cytoplasmic region Stx3 (L165A/E166A) (domain or fragment, rat, UniProt Q08849 1-265, looked up)
chain: MKDRLEQLKAKQLTQDDDTDEVEIAIDNTAFMDEFFSEIEETRLNIDKISEHVEEAKKLYSIILSAPIPEPKTKDDLEQLTTEIKKRANNVRNKLKSMEKHIEEDEVRSSADLRIRKSQHSVLSRKFVEVMTKYNEAQVDFRERSKGRIQRQLEITGKKTTDEEAAEMLESGNPAIFTSGIIDSQISKQALSEIEGRHKDIVRLESSIKELHDMFMDIAMLVENQGEMLDNIELNVMHTVDHVEKARDETKRAMKYQGQARKKLI
notes: syntaxin 3 (Stx3), rat, cytoplasmic region, residues 1-265, with LE165/166AA; Made by site-directed mutagenesis in the Stx3 (1–265) pGEX-4T-3 plasmid; also called open-conformation mutant (LE165/166AA); source: E. coli Rosetta 2, purified (glutathione agarose, eluted with glutathione, dialyzed)

Assays:
[1] = molecular target: T1, Purified bovine ubiquitin (bovine, UniProt P0CG53 1-76); assay: SPR; Biacore 2000, room temperature, HBS-EP buffer (10 mM HEPES pH 7.4, 150 mM NaCl, 3 mM EDTA, 0.005% Tween-20); GST-fusion proteins captured on a CM5 chip with a GST capture kit, free ubiquitin flowed over; conditions: both partners purified
T1 construct: ubiquitin, bovine, the cut product of the ubiquitin precursors; also called free ubiquitin; mono-ubiquitin in solution; source: bought: Millipore-Sigma (U6253)

[2] = molecular target: T2, ubiquitin on ubiquitin-coated agarose beads (UniProt P0CG53 1-76); assay: pull-down; ubiquitin-coated agarose beads with 1 µM purified GST-fusion protein in Buffer A (25 mM HEPES–KOH pH 7.4, 125 mM potassium acetate, 2.5 mM magnesium acetate, 5 mM EGTA) + 1% FBS, 2 h at room temperature; uncoated CL4B beads as control; immunoblot with anti-GST or anti-Stx3; conditions: both partners purified
T2 construct: ubiquitin, the cut product of the ubiquitin precursors; Coupled to agarose; also called ubiquitin-coated beads; ubiquitin-coated (U) agarose beads; source: bought: Millipore-Sigma (ubiquitin-coated agarose)

Row | Binder | Kd [1] [µM] | fold change of pull-down against the entire Stx3 cytoplasmic domain [2] [fold] | fold change of pull-down against wild-type Stx3 [2] [fold]
1 | B1 | 1360 | 3.78 | 
2 | B2 |  |  | 1.73
